B1: Fab VH1-46_IGHD6-6*01_IGHJ1*01 S102A/S103P/S104F/H111F F29A & L6_IGKJ1*01 (Fab, V domains shown)
VH: QVQLVQSGAEVKKPGASVKVSCKASGYTATSYYMHWVRQAPGQGLEWMGIINPSGGSTSYAQKFQGRVTMTRDTSTSTVYMELSSLRSEDTAVYYCAREEYAPFSAEYFQFWGQGTLVTVSS
VL: not shown
notes: Tested as Fab (CH1 with His6/Flag tags; kappa CL), expressed in E. coli; also called APFF F29A
B2: Fab VH3-23_IGHD2-21*01>3_IGHJ6*01 H100E/S108P/Y113G/Y111I & V2-13_IGLJ2*01 (Fab, V domains shown)
VH: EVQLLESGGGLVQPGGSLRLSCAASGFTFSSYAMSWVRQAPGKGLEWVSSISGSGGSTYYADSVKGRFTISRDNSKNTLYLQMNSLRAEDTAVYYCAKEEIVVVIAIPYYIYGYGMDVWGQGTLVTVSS
VL: SSELTQDPAVSVALGQTVRITCQGDSLRSYYASWYQQKPGQAPVLVIYGKNNRPSGIPDRFSGSSSGNTASLTITGAQAEDEADYYCNSRDSSGNHLVVFGGGTKLTVL
notes: Fab made in E. coli: VH joined to CH1 (with His and Flag tags, plasmid A) and VL to lambda CL (plasmid E); also called EPG Y111I
B3: Fab VH3-23_IGHD2-21*01>3_IGHJ6*01 H100E/S108P/Y113G/Y111N & V2-13_IGLJ2*01 (Fab, V domains shown)
VH: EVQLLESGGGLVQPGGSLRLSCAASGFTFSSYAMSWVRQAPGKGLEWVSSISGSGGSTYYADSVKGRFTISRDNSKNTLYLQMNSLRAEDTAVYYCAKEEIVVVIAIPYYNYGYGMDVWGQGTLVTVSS
VL: B2 VL
notes: Fab made in E. coli: VH joined to CH1 (with His and Flag tags, plasmid A) and VL to lambda CL (plasmid E); also called EPG Y111N
B4: Fab VH3-23_IGHD2-21*01>3_IGHJ6*01 H100E/S108P/Y113G/Y111S & V2-13_IGLJ2*01 (Fab, V domains shown)
VH: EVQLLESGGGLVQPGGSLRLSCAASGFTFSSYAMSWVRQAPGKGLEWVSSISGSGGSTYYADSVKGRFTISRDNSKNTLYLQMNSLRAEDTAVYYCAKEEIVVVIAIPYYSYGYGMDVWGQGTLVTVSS
VL: B2 VL
notes: Fab made in E. coli: VH joined to CH1 (with His and Flag tags, plasmid A) and VL to lambda CL (plasmid E); also called EPG Y111S
B5: Fab VH3-23_IGHD2-21*01>3_IGHJ6*01 H100E/S108P/Y113G/Y110R & V2-13_IGLJ2*01 (Fab, V domains shown)
VH: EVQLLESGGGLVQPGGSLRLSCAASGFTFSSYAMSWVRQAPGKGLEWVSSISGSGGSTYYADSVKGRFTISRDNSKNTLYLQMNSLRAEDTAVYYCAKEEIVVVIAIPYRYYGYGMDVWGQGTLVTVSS
VL: B2 VL
notes: Fab made in E. coli: VH joined to CH1 (with His and Flag tags, plasmid A) and VL to lambda CL (plasmid E); also called EPG Y110R
B6: Fab VH3-23_IGHD2-21*01>3_IGHJ6*01 H100E/S108P/Y113G/Y111T & V2-13_IGLJ2*01 (Fab, V domains shown)
VH: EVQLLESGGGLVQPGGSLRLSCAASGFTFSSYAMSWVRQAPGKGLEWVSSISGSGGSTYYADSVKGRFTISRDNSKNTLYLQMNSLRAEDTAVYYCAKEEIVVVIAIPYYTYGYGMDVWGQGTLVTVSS
VL: B2 VL
notes: Fab made in E. coli: VH joined to CH1 (with His and Flag tags, plasmid A) and VL to lambda CL (plasmid E); also called EPG Y111T
B7: Fab VH3-23_IGHD2-21*01>3_IGHJ6*01 H100E/S108P/Y113G Y109G & V2-13_IGLJ2*01 (Fab, V domains shown)
VH: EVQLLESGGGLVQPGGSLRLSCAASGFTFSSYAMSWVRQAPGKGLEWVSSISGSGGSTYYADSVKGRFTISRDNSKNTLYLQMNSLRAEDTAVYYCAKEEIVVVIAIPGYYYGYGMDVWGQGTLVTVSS
VL: B2 VL
notes: Tested as Fab made in E. coli: VH joined to CH1 (His and Flag tags), VL joined to lambda CL; also called EPG Y109G
B8: Fab VH3-23_IGHD2-21*01>3_IGHJ6*01 H100E/S108P/Y113G Y110P & V2-13_IGLJ2*01 (Fab, V domains shown)
VH: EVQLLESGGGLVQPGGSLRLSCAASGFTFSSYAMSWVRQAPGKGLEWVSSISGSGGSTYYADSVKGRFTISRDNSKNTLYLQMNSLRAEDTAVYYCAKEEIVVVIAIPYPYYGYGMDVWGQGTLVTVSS
VL: B2 VL
notes: Tested as Fab made in E. coli: VH joined to CH1 (His and Flag tags), VL joined to lambda CL; also called EPG Y110P
B9: Fab VH3-23_IGHD2-21*01>3_IGHJ6*01 H100E/S108P/Y113G Y110N & V2-13_IGLJ2*01 (Fab, V domains shown)
VH: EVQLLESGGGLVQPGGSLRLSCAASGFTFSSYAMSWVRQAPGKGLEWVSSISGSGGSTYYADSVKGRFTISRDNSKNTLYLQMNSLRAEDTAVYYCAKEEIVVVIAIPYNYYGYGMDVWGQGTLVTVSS
VL: B2 VL
notes: Tested as Fab made in E. coli: VH joined to CH1 (His and Flag tags), VL joined to lambda CL; also called EPG Y110N
B10: Fab VH3-23_IGHD2-21*01>3_IGHJ6*01 H100E/S108P/Y113G Y110H & V2-13_IGLJ2*01 (Fab, V domains shown)
VH: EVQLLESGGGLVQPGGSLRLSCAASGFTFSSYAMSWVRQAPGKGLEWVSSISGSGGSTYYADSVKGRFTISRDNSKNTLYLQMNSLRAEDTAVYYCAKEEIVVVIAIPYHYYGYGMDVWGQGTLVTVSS
VL: B2 VL
notes: Tested as Fab made in E. coli: VH joined to CH1 (His and Flag tags), VL joined to lambda CL; also called EPG Y110H
B11: Fab VH3-23_IGHD2-21*01>3_IGHJ6*01 H100E/S108P/Y113G Y110S & V2-13_IGLJ2*01 (Fab, V domains shown)
VH: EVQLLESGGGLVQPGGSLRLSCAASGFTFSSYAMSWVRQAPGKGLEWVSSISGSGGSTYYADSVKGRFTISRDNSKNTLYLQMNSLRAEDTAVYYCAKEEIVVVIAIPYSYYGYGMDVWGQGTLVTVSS
VL: B2 VL
notes: Tested as Fab made in E. coli: VH joined to CH1 (His and Flag tags), VL joined to lambda CL; also called EPG Y110S
B12: Fab VH3-23_IGHD2-21*01>3_IGHJ6*01 H100E/S108P/Y113G Y109R & V2-13_IGLJ2*01 (Fab, V domains shown)
VH: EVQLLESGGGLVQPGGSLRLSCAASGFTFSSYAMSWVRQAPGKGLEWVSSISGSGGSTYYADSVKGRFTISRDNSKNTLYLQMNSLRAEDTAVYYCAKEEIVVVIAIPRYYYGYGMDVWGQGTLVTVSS
VL: B2 VL
notes: also called EPG Y109R

Each binder was assayed against T1, Recombinant Human DLL4 (R&D Systems Cat#1506-D4/CF) (human, UniProt Q9NR61 27-524) (assay: ECL Multispot (MSD), DLL4 spotted, 10 nM Fab).
T1 construct: Bought recombinant protein; also called delta-like protein 4; rHuman DLL4

| Binder | ECL Signal/Noise |
| --- | --- |
| B1 | 190 |

Each binder was assayed against T1, Recombinant Human DLL4 (R&D Systems …) (assay: ELISA, DLL4 coated, 100 nM Fab, absorbance at 450 nm minus noise).

| Binder | ELISA (Signal-Noise) |
| --- | --- |
| B1 | 0.67 |

What follows are binders tested against T2, rHuman ErbB2/Fc Chimera, CF (R&D Systems Cat#1129-ER) (human, UniProt P04626 23-652) (assay: ECL (MSD) multispot binding assay, antigen spotted on plate, 20 nM Fab;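 further: purified Fab incubated 1 h at 20 °C on antigen-spotted plate, bound Fab revealed with TAG detection antibody, ECL read, antigen signal divided by same-well blank, ratio ≥4 counted as hit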).
T2 construct: Bought recombinant protein; also called human epidermal growth factor 2 receptor; Fc part of the bought chimera not given

| Binder | ECL signal/blank ratio |
| --- | --- |
| B2 | 1.7 |
| B3 | 1.5 |
| B4 | 2.1 |
| B5 | 2.1 |

What follows are binders tested against T3, rHuman EGF R/Fc Chimera, CF (R&D Systems Cat#344-ER) (human, UniProt P00533 25-645) in the same assay as above.
T3 construct: Bought recombinant protein; also called epidermal growth factor receptor; Fc part of the bought chimera not given

| Binder | ECL signal/blank ratio |
| --- | --- |
| B2 | 1.9 |
| B3 | 1.4 |
| B4 | 1.8 |
| B5 | 1.6 |

The binders below were run against T4, rHuman Notch-1/Fc Chimera, CF (R&D Systems Cat#3647-TK) (human, UniProt P46531 19-526) in the same assay as above.
T4 construct: Bought recombinant protein; Fc part of the bought chimera not given

| Binder | ECL signal/blank ratio |
| --- | --- |
| B2 | 1.8 |
| B3 | 1.3 |
| B4 | 1.9 |
| B6 | 2 |
| B5 | 1.6 |

Each binder was assayed against T5, rHuman CD44/Fc Chimera, CF (R&D Systems Cat#3660-CD) (human, UniProt P16070 21-220) in the same assay as above.
T5 construct: Bought recombinant protein; Fc part of the bought chimera not given

| Binder | ECL signal/blank ratio |
| --- | --- |
| B2 | 1.3 |
| B3 | 0.9 |
| B4 | 1.2 |
| B6 | 1.8 |
| B5 | 1.3 |

The binders below were run against T6, rHuman IGF-1 sR, (IGF-1 sR), CF (R&D Systems Cat#391-GR) (human, UniProt P08069 31-932) in the same assay as above.
T6 construct: Bought recombinant soluble receptor; also called insulin-like growth factor-1 soluble receptor

| Binder | ECL signal/blank ratio |
| --- | --- |
| B2 | 1 |
| B3 | 0.8 |
| B4 | 1.3 |
| B6 | 1.2 |
| B5 | 1.4 |

The binders below were run against T7, rHuman P-Cadherin/Fc Chimera, CF (R&D Systems Cat#861-PC) (human, UniProt P22223 108-654) in the same assay as above.
T7 construct: Bought recombinant protein; Fc part of the bought chimera not given

| Binder | ECL signal/blank ratio |
| --- | --- |
| B2 | 1.9 |
| B3 | 2.9 |
| B4 | 5 |
| B6 | 6.2 |

Each binder was assayed against T8, rHuman Erythropoietin R/Fc Chimera, CF (R&D Systems Cat#963-ER) (human, UniProt P19235 25-250) in the same assay as above.
T8 construct: Bought recombinant protein; also called EPO R; EPO R/Fc; Fc part of the bought chimera not given
T8 sequence (looked up): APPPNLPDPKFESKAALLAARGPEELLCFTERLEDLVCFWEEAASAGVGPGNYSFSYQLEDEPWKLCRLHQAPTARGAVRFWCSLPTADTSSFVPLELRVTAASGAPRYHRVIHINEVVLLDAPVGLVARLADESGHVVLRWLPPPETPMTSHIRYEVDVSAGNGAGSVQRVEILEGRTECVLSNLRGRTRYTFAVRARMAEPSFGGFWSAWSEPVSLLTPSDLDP

| Binder | ECL signal/blank ratio |
| --- | --- |
| B2 | 6.9 |
| B3 | 9.3 |
| B4 | 30.1 |
| B6 | 38.8 |
| B5 | 4.8 |

What follows are binders tested against T9, Recombinant Human DLL4 (R&D Systems Cat#1506-D4/CF) (human, UniProt Q9NR61 27-524) in the same assay as above.
T9 construct: Bought recombinant protein; also called delta-like protein 4; rHuman DLL4

| Binder | ECL signal/blank ratio |
| --- | --- |
| B2 | 1.5 |
| B3 | 1.1 |
| B4 | 1.7 |
| B6 | 2.2 |
| B5 | 1.8 |

What follows are binders tested against T10, rHuman ErbB2/Fc Chimera, CF (R&D Systems Cat#1129-ER) (human, UniProt P04626 23-652) (assay: ECL multispot (MSD) binding assay, antigens spotted on plate, 20 nM Fab;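 further: fab incubated 1 h at 20 °C on antigen-spotted wells, bound Fab detected by TAG-labelled antibody, ratio of 4 or more over blank counted as a hit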).
T10 construct: Bought recombinant protein; also called human epidermal growth factor 2 receptor; Fc part of the bought chimera not given

| Binder | ECL multispot signal (ratio to blank; column not labelled) |
| --- | --- |
| B7 | 1.4 |
| B8 | 0.9 |
| B9 | 1.2 |
| B10 | 2.2 |
| B11 | 1 |
| B12 | 2 |

The binders below were run against T11, rHuman EGF R/Fc Chimera, CF (R&D Systems Cat#344-ER) (human, UniProt P00533 25-645) in the same assay as above.
T11 construct: Bought recombinant protein; also called epidermal growth factor receptor; Fc part of the bought chimera not given

| Binder | ECL multispot signal (ratio to blank; column not labelled) |
| --- | --- |
| B7 | 2 |
| B8 | 1.1 |
| B9 | 0.9 |
| B10 | 1.7 |
| B11 | 1.3 |
| B12 | 1.8 |

Each binder was assayed against T12, rHuman Notch-1/Fc Chimera, CF (R&D Systems Cat#3647-TK) (human, UniProt P46531 19-526) in the same assay as above.
T12 construct: Bought recombinant protein; Fc part of the bought chimera not given

| Binder | ECL multispot signal (ratio to blank; column not labelled) |
| --- | --- |
| B7 | 1.5 |
| B8 | 1.1 |
| B9 | 1.3 |
| B10 | 1.4 |
| B11 | 0.8 |
| B12 | 1.4 |

What follows are binders tested against T13, rHuman CD44/Fc Chimera, CF (R&D Systems Cat#3660-CD) (human, UniProt P16070 21-220) in the same assay as above.
T13 construct: Bought recombinant protein; Fc part of the bought chimera not given

| Binder | ECL multispot signal (ratio to blank; column not labelled) |
| --- | --- |
| B7 | 1.5 |
| B8 | 1.2 |
| B9 | 0.8 |
| B10 | 1.4 |
| B11 | 1 |
| B12 | 1 |

The binders below were run against T14, rHuman IGF-1 sR, (IGF-1 sR), CF (R&D Systems Cat#391-GR) (human, UniProt P08069 31-932) in the same assay as above.
T14 construct: Bought recombinant soluble receptor; The column head prints only 'IGF-1'; also called insulin-like growth factor-1 soluble receptor

| Binder | ECL multispot signal (ratio to blank; column not labelled) |
| --- | --- |
| B7 | 1.6 |
| B8 | 1.2 |
| B9 | 0.9 |
| B10 | 1.3 |
| B11 | 1.1 |
| B12 | 1.3 |

What follows are binders tested against T15, rHuman P-Cadherin/Fc Chimera, CF (R&D Systems Cat#861-PC) (human, UniProt P22223 108-654) in the same assay as above.
T15 construct: Bought recombinant protein; Fc part of the bought chimera not given

| Binder | ECL multispot signal (ratio to blank; column not labelled) |
| --- | --- |
| B8 | 1.7 |
| B9 | 1.2 |
| B11 | 1.9 |
| B12 | 7.4 |

What follows are binders tested against T16, rHuman Erythropoietin R/Fc Chimera, CF (R&D Systems Cat#963-ER) (human, UniProt P19235 25-250) in the same assay as above.
T16 construct: Bought recombinant protein; also called EPO R; Epo R; Fc part of the bought chimera not given
T16 sequence (looked up): T8 sequence (looked up)

| Binder | ECL multispot signal (ratio to blank; column not labelled) |
| --- | --- |
| B7 | 11.1 |
| B8 | 2.9 |
| B9 | 1.6 |
| B11 | 4.5 |
| B12 | 30.1 |

What follows are binders tested against T17, Recombinant Human DLL4 (R&D Systems Cat#1506-D4/CF) (human, UniProt Q9NR61 27-524) in the same assay as above.
T17 construct: Bought recombinant protein; also called delta-like protein 4; rHuman DLL4

| Binder | ECL multispot signal (ratio to blank; column not labelled) |
| --- | --- |
| B7 | 1.9 |
| B8 | 1.4 |
| B9 | 1.2 |
| B10 | 1.9 |
| B11 | 1.2 |
| B12 | 1.5 |

— patent publication US20120316071A1 (published 2012)
